Drawing on patent US6849601B1 (priority 1998, dated 2005), this text covers IC50, -log Ki and Ki for two molecules.

Positions of bridges follow the written chain, without caps; N, C: chain ends. Residues, ends and D or L forms follow the SMILES beside them.

Assay [1] concerns bisected rat prostatic vas deferens.
Assay [2] deals with T1, hamster α1B-adrenoceptor (hamster), P18841.
T1 chain: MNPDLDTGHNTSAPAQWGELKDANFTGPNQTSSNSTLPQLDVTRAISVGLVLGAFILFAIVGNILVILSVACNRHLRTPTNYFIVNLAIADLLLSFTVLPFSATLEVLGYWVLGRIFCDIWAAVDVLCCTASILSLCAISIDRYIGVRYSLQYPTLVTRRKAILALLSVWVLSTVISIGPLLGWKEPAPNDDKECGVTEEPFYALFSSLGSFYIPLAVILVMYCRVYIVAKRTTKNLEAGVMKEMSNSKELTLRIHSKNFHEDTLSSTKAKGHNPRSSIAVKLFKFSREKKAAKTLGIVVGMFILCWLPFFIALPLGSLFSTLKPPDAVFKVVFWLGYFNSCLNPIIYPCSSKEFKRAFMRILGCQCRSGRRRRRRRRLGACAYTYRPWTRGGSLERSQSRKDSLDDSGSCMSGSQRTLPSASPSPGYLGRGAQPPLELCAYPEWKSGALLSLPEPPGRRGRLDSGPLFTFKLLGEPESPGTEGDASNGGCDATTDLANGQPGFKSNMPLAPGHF

The target in assay [3] is T2, rat α1A-adrenoceptor (rat), P43140.
T2 chain: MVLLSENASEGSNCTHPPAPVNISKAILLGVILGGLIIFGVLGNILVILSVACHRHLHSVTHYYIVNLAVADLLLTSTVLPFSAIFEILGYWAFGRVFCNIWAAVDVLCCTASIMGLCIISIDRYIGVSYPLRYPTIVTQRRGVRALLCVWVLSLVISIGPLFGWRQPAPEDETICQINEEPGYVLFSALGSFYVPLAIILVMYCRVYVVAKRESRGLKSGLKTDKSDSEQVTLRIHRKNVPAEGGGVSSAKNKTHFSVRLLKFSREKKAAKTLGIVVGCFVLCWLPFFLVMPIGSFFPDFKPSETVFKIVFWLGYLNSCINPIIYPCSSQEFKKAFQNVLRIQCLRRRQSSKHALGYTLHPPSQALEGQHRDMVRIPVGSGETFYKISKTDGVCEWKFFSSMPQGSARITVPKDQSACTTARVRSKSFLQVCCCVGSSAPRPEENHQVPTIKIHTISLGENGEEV

The target in assay [4] is T3, rat α1D-adrenoceptor (rat), P23944.
T3 chain: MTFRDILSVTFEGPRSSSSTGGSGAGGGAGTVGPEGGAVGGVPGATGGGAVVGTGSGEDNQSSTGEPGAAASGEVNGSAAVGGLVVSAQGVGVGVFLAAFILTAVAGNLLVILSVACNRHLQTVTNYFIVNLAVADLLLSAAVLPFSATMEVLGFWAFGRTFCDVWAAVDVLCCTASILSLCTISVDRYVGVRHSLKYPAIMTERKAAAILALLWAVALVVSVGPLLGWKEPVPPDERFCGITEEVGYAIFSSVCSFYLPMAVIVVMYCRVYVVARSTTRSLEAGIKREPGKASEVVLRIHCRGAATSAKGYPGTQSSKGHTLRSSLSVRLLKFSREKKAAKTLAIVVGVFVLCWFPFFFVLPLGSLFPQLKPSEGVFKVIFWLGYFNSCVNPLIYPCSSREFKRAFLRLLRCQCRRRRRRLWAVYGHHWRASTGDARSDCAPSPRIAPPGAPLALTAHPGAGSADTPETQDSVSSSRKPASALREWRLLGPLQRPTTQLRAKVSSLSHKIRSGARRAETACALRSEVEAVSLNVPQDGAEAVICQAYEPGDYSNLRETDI

In assay [5] the target is T1, hamster α1B-adrenoceptor (hamster), ….

In assay [1], `CC[C@H](C)[C@@H]1NC(=O)[C@H](CC(C)C)NC(=O)[C@@H]2CSSC[C@@H](C(N)=O)NC(=O)[C@H](Cc3ccccc3)NC(=O)[C@H](CCCCN)NC(=O)[C@H](CCCCN)NC(=O)[C@H](Cc3c[nH]cn3)NC(=O)[C@H](CC(N)=O)NC(=O)[C@H](CCCNC(=N)N)NC(=O)[C@H](CCCNC(=N)N)NC(=O)[C@H](CSSC[C@H](NC(=O)[C@H](CCCNC(=N)N)NC(=O)[C@H](Cc3c[nH]c4ccccc34)NC(=O)[C@H](CC(N)=O)NC(=O)[C@@H](N)Cc3ccccc3)C(=O)N2)NC(=O)[C@H](C)NC(=O)[C@@H]2CCCN2C1=O` [ρ-TIA, FNWRCCLIPACRRNHKKFC] (H-FNWRCCLIPACRRNHKKFC-NH2; disulfide 5-11, 6-19) came in with a 50% inhibitory concentration (IC50) of about 300 nM.

With FNWRCCLIPACRRNHKKFC (modifications not checked) [ρ-TIA], the results for the -log Ki in assay [2], in assay [3] and in assay [4] were 7.7, 7.29 and 7.09, respectively. Moreover, the Ki in assay [5] amounted to 20 nM.
